Earlier results on 2 substances are cited in PMC5408752.

pKd: −log10 of the molar value.

Series [1] deals with NisA leader leader (Lactococcus lactis) (UniProt P13068). As to the kind of experiment: isothermal titration calorimetry. Background: In ITC the heat of successive injections is recorded.
The target in series [2] is NisA precursor (Lactococcus lactis) (UniProt P13068). Nature of the series: isothermal titration calorimetry.
Series [3] addresses nisin (Lactococcus lactis) (UniProt P13068). As to the kind of experiment: NMR titration.

As for NisC (from UniProt Q03202), the pKd – broadly, −log10 of the Kd, conventionally taken in molar units – in series [1] was 5.42; in series [2], 5.70.
With NisI CTD (from UniProt P42708), the negative-log Kd (pKd) in series [3] was 4.66.
